Measurements from patent publication US20150344587A1.

Key:
[1] = target: CD20 (UniProt P11836); assay: binding to CD20 after 37° C. for 3 days; method not stated
[2] = target: CD20 (UniProt P11836); assay: binding to CD20 after 37° C. for 7 days; method not stated

- loss of binding affinity [1]: 10%
- loss of binding affinity [2]: 20%
Substance: (Fucα1,6)GlcNAc-Rituximab (antibody)
